The values below come from patent US20230099646A1 (published 2023).

The target of this test is T1, cynomolgus monkey CD19 (cCD19) (cynomolgus monkey).
T1 construct: Expressed on transiently transfected 293 cells
T1 chain: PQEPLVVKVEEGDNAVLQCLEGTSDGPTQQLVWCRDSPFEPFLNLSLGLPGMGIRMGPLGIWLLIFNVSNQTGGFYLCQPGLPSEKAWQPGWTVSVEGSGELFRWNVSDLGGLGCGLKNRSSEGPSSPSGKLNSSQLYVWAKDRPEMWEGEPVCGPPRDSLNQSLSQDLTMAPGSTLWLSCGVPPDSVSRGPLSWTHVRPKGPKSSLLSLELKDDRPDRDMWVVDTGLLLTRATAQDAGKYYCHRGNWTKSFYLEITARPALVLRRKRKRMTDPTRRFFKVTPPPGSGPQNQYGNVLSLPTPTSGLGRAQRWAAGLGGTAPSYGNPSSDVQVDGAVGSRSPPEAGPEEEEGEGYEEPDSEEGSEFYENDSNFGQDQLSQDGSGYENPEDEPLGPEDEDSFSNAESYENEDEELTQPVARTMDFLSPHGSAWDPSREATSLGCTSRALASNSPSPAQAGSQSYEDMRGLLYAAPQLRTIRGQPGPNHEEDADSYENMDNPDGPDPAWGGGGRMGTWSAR
The test is described as follows: flow cytometry on transfected 293 cells. For orientation: A flow cytometer gives signals particle by particle.

Protocol: In brief, first, the expression of CD19 protein was identified.
Binding to GFP-positive cells was analyzed on the basis of mean fluorescence intensity (MFI).

B1: CD19_12.18 antibody (scFv, V domains shown)
VH: AVTLDESGGGLQTPGGALSLVCKASGFTFSSYDMGWVRQAPGKGLEFVAGIDDDGRYTSYGSAVDGRATISRDNGQSTVRLQLNNLRAEDTATYYCTRGNAGWIDAWGHGTEVIVSS
VL: LTQPSSVSANPGETVKITCSGGYSSYYGWYQQKSPGSAPVTLIYESNKRPSDIPSRFSGSASGSTATLTITGVQVEDEAVYYCGGWDSTHAGIFGAGTTLTVLG
notes: Chicken-derived antibody, tested as an Fc fusion (Anti-CD19 scFv-Fc) made in FreeStyle 293F cells; also called CD19_1218-Fc; Anti-CD19 scFv-Fc
For B1, the binding result is listed as “no binding”.
